Patent publication US20230226096A1 (Orna Therapeutics, Inc., priority 2020, published 2023)

B1: Chicken orivirus 1 (nucleic acid, listed as Orivirus sp.)
DNA: AAACCCTCACGAGTGCTTGTGGTAGGTCCCAGGCCAATATTCTTCGTAAGGCTTGGTTCCAATTTTCCACCACTCGTGTTTGGGTTCTGGCCTATGGTACCCAGAGGGGCGGTTTGGGGGAATTAACTCCCCCTCCCCTGTGGTCCTATACCACCCCACACCTCTGTGGGCTTTCTTTACTATCTTCTTGTTTTCCGACTTTTAAACACTAGGCAGGCGCGCCTAGTCATACACCGCCCGGCTGGTCTTTCCAGCTCTTGTGGGCGGTGCGCGCTGGTCCATCGTGCCCAGCGACATAGCACCTTGTGGACACCTCCGAACGCCCTCCCCTGTATGGGGTGGTGCCCAGGGGTTTCAGTGTGGTGACACACTCCCTGGGGCCCGAAAGGCTAGTGTGCAACAGGTGAGGTACAGCCAGCTGCCCCCGTGGCTGGAGGGACCAAGCTTGTGAAGCACACCTCACCTTCTTGGGGGTGGGCTAGTAAGTGGTGAAAGCATAGTGTCCGTGTCGCTGGCCAACACTTTGGGTCAAGTCCAGCCACTCAGTGAGTAGATGCCCAGGAGGTACCCCTAGTGGATCTGACTTGGGGCCTGTTACTTAATGCAGGTTAAAAACTATGAAAGCTGAGTAGTGTAGCCCGGCTGGTGGCTTCTCTTCCTTATTCATTCTATTTT
B2: Chicken gallivirus 1 (nucleic acid, listed as Gallivirus sp.)
DNA: GGTTAACTTGTTTAACCAAGGCTTCCGTGCAGGGCTTGCACGTTAGGAGTTCATGTTGATTCATGCTCCAATGCCCAAAACTTTGTGTGTTTGTTTATGTCTTTCCCAAAGTTTCCCCCAAGGTTTCGGTACTCAAACCTTAATTCCTAGTCCCATCTTTTGGGCCTTAGTATCTAGGAAATGTACCCGTGCCTTGACGAACGTAAGAAAGCTGTCTTTTATTGAACGGTTCTAATGAACTAAGTATAACTGGCTCGCGCCACCTGGTGTGTGCCGTTGGAATTCCCCCATGGTAACATGGTCCAACGGGCCCGAAAGGCTAGTGGGCAATCGGTCCTCCAAGGAAGGGGTTCCCACCCCGACCTGAACAGGATTTGATGAAGCTCACCTCCCAGGCTCCTAACCCCAAGGAAGTTTACTTATAGTAATTAGAATTTAGTATGTAATTGCTGGCAATCTTGCTAGTAGTCAGGAACGTTATGACCAAATGAGTAGACCCCCAGAAGGTACCCCATTATATGGGATCTGATCTGGGCCTCATACTGTGTGTCTCCCCACATATGAGGTTAAAACCATGAAAGTTTGGTCCAAAATATTCTTTTCCTTTTATCTTTTCTTTAGTGGTGACGCCATTATATCAGCAGTTTGCTG
B3: Chicken calicivirus (nucleic acid)
DNA: GGTGCATCATCACTGAACACCCTCGGGCAGAGATGCAAGGGTGGAAGTCACTCCTGCCCCCTGGCAACATGCAGGTGCCCGATCCCAAGCTTAGTTCTGACTTCCTCTCCTGGGTGGTGCAACACTCCAAGGTTGATGAACAAACCTGGAGGGACCTCTGGGCAACCTGGTCTCTCGAGGATCTCCGGCGCATCTCCACAGACTACCTCATGCTCCCGGAACCTGAGAAGAACACTGATGCCTATGATGGCTGGCTGATGGTCGGCGAGATGTTGACCTTTGCCGGTCTCATTGGCTGGGAGG
B4: Poecivirus BCCH-449 (nucleic acid, listed as Poecivirus sp.)
DNA: ACTACACAATCGCAACACGCGCAAGTTTGTAGTTTGATTGGCGTGCAAATGTCAAATCAAGCATATAACACAATTTGGTGGCTGTTGGTGTTTGTTATAGGAATTTTGGTTGTGTTGAAATTGTGGATGTGTAGGAAATATGCACAATTACGTCAGCGTCAGGAGTTTTATAACCTGGCGCAACACCAAAATGGTCTTCGCGCTTTAACATCACCAGCGAGGTGTAAACAAATTGAAGTTGAATTAGATCGTGTATAGGCCAGGGAACCATCCCTCCCAACGCCACATCTTGTGGGGAAGTTGGGATAATGGTGGGTCTATATGAATTGGTCTGTAGACCCACAGTGAAGAGTGAATAGTATGCTTGCGGTTCCATTTGTTAATGGTCTAGCATGGGTGGGGGCGGCAACCCCGTGAGGGGTTCCCCACTGGCCAAAAGCCCAGGGGTTAGTCATTTCAACCAAGGAAGCTGGTAACCTGGTGACCTGAACTTGAGTGGTGAGACCCCCTTGCTAGAGTGTGTAAACCGATTGTAAGCATTTTGTTTGCTTAGTATCTGTGGTATAAGCAGTCAATTTTGTATAGGCTCAAGGCTGTGGTAGTTAGTAGATGCCCGGAAGGTTATTACTGATCCGGGGACCGTGACTATACATTAGGTAAACCGGTTTAAAAACC
B5: Carp picornavirus 1 (nucleic acid)
DNA: AGCTACAGGAAAGAGAGAGATAATCACAGCACATAAATACAACTACAGAAGAGAGCCTTTCCCTGAGCACTATTTACAGCAAACCACGCTGGGAAAAGTGGTAGCATGACCCACTTACGGGTTACTTAGTATAGGATTTTAATATCTTCGATTCTTTATTTTCTTTTCTTAACTAAGTTCGCCCGGACTTTATCCGTGTTTTATTTTAGTTTAAGCAAAATTGAGTAACTAAGTTTTTAACCTGCCAAATGGTGAGAAGTAACTCTGTGAAAATACCATTTGTGCATGAAATTGTCTTGAAAACTCTTAGGCTTTTGGGGGGTCCCACTGCTGTTTGGAGGACTATTGACAGACTCTATTGTAGTTGAGTAGTGACTAATGATAACGATTTGCGTATTACGCAATGGGCTGTACCCGTTAGATTTAGTATGCCGGGGGGAGGGGTCCCACTGGATTGCACTATGTAACCTGACAGGGCGTCTGCCGACGCACTACAATGAGGATAAGATCGGCTGTTTTTATTT
B6: Falcon picornavirus (nucleic acid)
DNA: CGCTTGGAATAAGTTGAGAGGAATTATGCATGCTAGTTGTGTTTGTTTACAACTAATTGTTCTAATCCAAGTGAAGCTCTTCGCTTGGGGCGGCACGACACTTGCCGTAATTCTTCTACCGTCCCTCCACACCTTGTGGATGAAGGGCCGGATGTGTGGCCTCTGGCTAACCCCTCTCTCTGGGGTGATGCTACTGGATGTTTTACTCCTAGACCAAATCACATGAACTCCTCTTGATCCACTTCGGTGGGGCTATGAGCCTGCGGATTAATAGCTGGCGACAGCTACCCCAGGGGCCAAAAGCCACGGTGTTAGCAGCACCCTCATAGTCTGATGCCCAAGGGCTGATGTTGGGAGCTAGTAGTGTGTGTCTGGCCTATGTTTAGGACTTCTGGCCAAGCGCAGAGGAGTGGGGCTGAAGGATGCCCAGAAGGTACCCGTAGGTAACCTTAAGAGACTATGGATCTGATCTGGGGCCCCCTCACGTGGCTTTACCACGTGTTGGGGGTTAAAAAACGTCTAGGCCCCACCAGCCCACGGGAGTGGGCTTTCCCTTAAAAAGCCCAACAATATTTATGGTGACAATTCACTGTTTCTTCTTTGCAATTTTTGTATTCTTGGACTCCTTATTTTTTGTTTGCTTGATTTTAGTGGACATTCAGATTCAAATACAAA
B7: Equine rhinitis B virus 1 (nucleic acid)
DNA: CGACAGGCACAGGTCGCTCCGAGTTCTAGTAGTGTGGGAACTTGTTACTACTGATGAAACGAGGTAGTGACACTCAGTACCTGCGAACGAGGTCGGGGCCCTCCCTTCTTCCTTCACCCAACTTTCACTTTTCGTTCCACTTTAGCAGGGGTCTTCTTTCTATCCCCCTGGCGGCATTGGAACTAGCCGTCGCGTCTTAACGCGCAGCCCTGAAGGCCCCACACCTTGTGGATCTTGCCGTGGGTATGTTTCTGGCATGTGTTTCTCAAGCCTGCAACCGAAGCCGAACAGCCACATGAACAGTTTGAGCGTGGTAGCGCTGTGTGAGTTGGCGGTGGATCCCCCTCGTGGTAACACGAGCCCCCGTGGCCAAAAGCCCAGTGTTTACAGCACCTCTCACATCCAGGACGACCCCATCCTGGCGCTCACTCTTAGTAGTATGGCTTAGTACGCATTAGGTGGTAAGCCGAGCTCTCCCTCGGCCTTGTTCTGAATGCACACATGTCTAGGGGCTAAGGATGTCCTACAGGTACCCGCACGTAACCTTCAGAGAGTGCGGATCTGAGTAGGAGACCGTGGTGCACTGCTTTACAGATGCAGCCCGGTTTAAAAAGCGTCTATGCCCCTACAGGGTAGCGGTGGGCCGCGCCCTTTCCTTTTAAAACTACTTGTTCT

Tested on: HEK293 cells
Format: cell-based, human
Settings: luminescence from secreted Gluc in supernatant 24 hours after transfection of HEK293 cells; circular RNA encoding Gluc with the named IRES (UTR truncated to 675 nt)

Molecule	Expression
B1	3.16E+05
B2	1.51E+07
B3	1.28E+05
B4	3.43E+05
B5	1.13E+05
B6	3.08E+06
B7	1.01E+05
